Measured values as given in paper PMC3620356.

Assays:
[1] = target: mature NIH45-46 IgG (human); test: BLI
[2] = target: 426c Env trimeric gp140 (wild type) (HIV-1 clade C, isolate 426c (HVTN503 participant)) (UniProt M4Q8P8); test: BLI

Substance	Kd [1] [nM]	Kd [2] [nM]
426c Env trimeric gp140 lacking the NLGS at position 276 (N276D) (natural protein)	3.66	–
mature NIH45-46 IgG (antibody)	–	10.6
